Source: article PMC12207370, “Macrocyclic Peptide Probes for Immunomodulatory Protein CD59: Potent Modulators of Bacterial Toxin Activity and Antibody‐Dependent Cytotoxicity” (Angewandte Chemie (International Ed. in English), 2025)

Biological target: T1, biotinylated CD59 (Homo sapiens, UniProt P13987)
T1 construct: Recombinant soluble human CD59 with an additional C-terminal cysteine residue
T1 sequence (P13987 26-102 limits assumed): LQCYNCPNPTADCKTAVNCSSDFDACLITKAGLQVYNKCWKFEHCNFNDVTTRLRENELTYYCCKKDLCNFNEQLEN
Experiment: mRNA-display cyclic peptide screen against CD59-biotin, NGS abundance after 6th selection round
Conditions: for Counts (raw counts for peptide sequence), Seq I: NGS sample Seq I; for Counts (raw counts for peptide sequence), Seq I / Counts (raw counts for peptide sequence), Seq II / Counts Seq I / Counts Seq II: sheet R6 (6th selection round); for Counts (raw counts for peptide sequence), Seq II: NGS sample Seq II; for Percentage of the pool, averaged across the two sequencing samples: average of Seq I and Seq II; for Percentage of the pool, averaged across the two sequencing samples / Percentage of the pool, Seq I / Percentage of the pool, Seq II / Percentage Seq I / Percentage Seq II / Percentage Average: sheet R6; for Percentage of the pool, Seq I: counts normalised by total counts of NGS sample Seq I; for Percentage of the pool, Seq II: counts normalised by total counts of NGS sample Seq II; for Percentage Seq I: counts normalised by total counts of sample Seq I; for Percentage Seq I / Percentage Seq II: percentage of the pool; for Percentage Seq II: counts normalised by total counts of sample Seq II; for Percentage Average: percentage of the pool averaged across the two sequencing samples; for Counts Seq I / Counts Seq II: raw NGS counts of peptide sequence; for Counts Seq I: sequencing sample Seq I; for Counts Seq II: sequencing sample Seq II
In short: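 Peptide–mRNA fusions were made by in vitro translation with a customised PURE express kit. The kit lacked release factor 1 and methionine and was supplemented with […] initiator tRNA carrying N-chloroacetyl-d-tyrosine. Thioether macrocycles were formed, then enriched and amplified over iterative rounds on CD59-biotin immobilised on streptavidin beads. NGS read counts per sequence were recorded after the 6th selection round.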

Row | Sequence | Counts (raw counts for peptide sequence), Seq I | Counts (raw counts for peptide sequence), Seq II | Percentage of the pool, averaged across the two sequencing samples [%] | Percentage of the pool, Seq I [%] | Percentage of the pool, Seq II [%] | Percentage Seq I [%] | Percentage Seq II [%] | Percentage Average [%] | Counts Seq I | Counts Seq II
1 | SAWGNRQIQYH | 65 | 7 | 0.016 | 0.015 | 0.016 |  |  |  |  | 
2 | SAWGNRQIQYY |  |  |  |  |  | 7.073 | 7.046 | 7.059 | 30945 | 3036
3 | SAWGNRQTQYY |  |  |  |  |  | 1.151 | 1.160 | 1.156 | 5037 | 500
4 | SAWGNRQVQYY |  |  |  |  |  | 0.110 | 0.116 | 0.113 | 483 | 50
5 | SAWGNRRIQYY |  |  |  |  |  | 0.034 | 0.037 | 0.035 | 148 | 16
6 | SAWGNRYIAYY | 47 | 6 | 0.012 | 0.011 | 0.014 |  |  |  |  | 
7 | SAWGNWQIQYY |  |  |  |  |  | 0.023 | 0.030 | 0.027 | 102 | 13
8 | SAWGSRQIQYY |  |  |  |  |  | 0.059 | 0.051 | 0.055 | 257 | 22
9 | SAYGSRDFAWA |  |  |  |  |  | 0.024 | 0.023 | 0.024 | 106 | 10
10 | SCSEWRRGTRS | 43 | 4 | 0.010 | 0.010 | 0.009 |  |  |  |  | 
11 | SFAKRVAAQGGC |  |  |  |  |  | 0.030 | 0.021 | 0.026 | 133 | 9
12 | SIRGGRDYTRG |  |  |  |  |  | 0.110 | 0.128 | 0.119 | 482 | 55
13 | SISGGRDYTRG |  |  |  |  |  | 0.032 | 0.026 | 0.029 | 141 | 11
14 | SKNGLTFLCN |  |  |  |  |  | 0.181 | 0.211 | 0.196 | 794 | 91
15 | SKNGLTFLCS |  |  |  |  |  | 0.016 | 0.032 | 0.024 | 70 | 14
16 | SRGGKDWSRG |  |  |  |  |  | 0.235 | 0.251 | 0.243 | 1026 | 108
17 | SRNGIQFTCS |  |  |  |  |  | 0.036 | 0.037 | 0.037 | 158 | 16
18 | SSALERIGKCP |  |  |  |  |  | 0.227 | 0.211 | 0.219 | 991 | 91
19 | SSFREYNHLPCT |  |  |  |  |  | 0.598 | 0.694 | 0.646 | 2617 | 299

Row | Sequence | Counts (raw counts for peptide sequence), Seq I | Counts (raw counts for peptide sequence), Seq II | Percentage of the pool, averaged across the two sequencing samples [%] | Percentage of the pool, Seq I [%] | Percentage of the pool, Seq II [%] | Percentage Seq I [%] | Percentage Seq II [%] | Percentage Average [%] | Counts Seq I | Counts Seq II
20 | SSWAQLPCKR |  |  |  |  |  | 0.039 | 0.030 | 0.035 | 170 | 13
21 | SSWAQLPCRR |  |  |  |  |  | 0.066 | 0.070 | 0.068 | 289 | 30
22 | SSWAQLPCRS |  |  |  |  |  | 0.041 | 0.051 | 0.046 | 180 | 22
23 | SSWAQVPCYS |  |  |  |  |  | 0.040 | 0.032 | 0.036 | 175 | 14
24 | SSYRELAHLPC |  |  |  |  |  | 0.031 | 0.046 | 0.039 | 135 | 20
25 | SSYRELAHLSC |  |  |  |  |  | 0.127 | 0.125 | 0.126 | 555 | 54
26 | STKNDYNNVPC |  |  |  |  |  | 0.012 | 0.026 | 0.019 | 54 | 11
27 | STRRDRLGLIC |  |  |  |  |  | 1.051 | 1.033 | 1.042 | 4600 | 445
28 | STRRDRLGLTC | 57 | 9 | 0.017 | 0.013 | 0.021 |  |  |  |  | 
29 | STWGNRNETRG |  |  |  |  |  | 0.029 | 0.026 | 0.028 | 129 | 11
30 | STYNDFFRVPC |  |  |  |  |  | 0.149 | 0.200 | 0.174 | 650 | 86
31 | SVGGSRSWTRG |  |  |  |  |  | 0.129 | 0.146 | 0.138 | 566 | 63
32 | SVRGDLYSVLG | 74 | 7 | 0.017 | 0.017 | 0.016 |  |  |  |  | 
33 | SVTGNRDHTRG |  |  |  |  |  | 0.021 | 0.026 | 0.023 | 92 | 11
34 | SWQNECFRLRT |  |  |  |  |  | 0.013 | 0.026 | 0.019 | 58 | 11
35 | SWTRGNRSSVRG | 44 | 5 | 0.011 | 0.010 | 0.012 |  |  |  |  | 
36 | SWTWGDRSSVRG |  |  |  |  |  | 0.016 | 0.023 | 0.020 | 71 | 10
37 | SWTWGNGSSVRG |  |  |  |  |  | 0.187 | 0.186 | 0.186 | 817 | 80
38 | SWTWGNRNSVRG |  |  |  |  |  | 0.043 | 0.065 | 0.054 | 190 | 28
